# Source: patent US20260174875A1 (Novo Nordisk A/S, priority 2023, published 2026)
# Numbered stars: 1 amine (or outer) side, 2 acyl side, 3 side chain; on linkers, the order of the positions; unused ones are H or OH. Square brackets hold non-standard residues; d marks the D form. Side chains are listed from the residue outwards. * marks the point of attachment. C20 diacid = O=C(O)CCCCCCCCCCCCCCCCCCC(=O)*; C18 diacid = O=C(O)CCCCCCCCCCCCCCCCC(=O)*; C16 diacid = O=C(O)CCCCCCCCCCCCCCC(=O)*; γGlu = O=C(O)[C@H](CCC(=O)[*:2])N[*:1]; Chem. 28 = not defined here; AEEA = NCCOCCOCC(=O)O; Aib = CC(C)(N)C(=O)O
# T1: human GIP receptor (human, UniProt P48546 22-466)
# T1 sequence (looked up): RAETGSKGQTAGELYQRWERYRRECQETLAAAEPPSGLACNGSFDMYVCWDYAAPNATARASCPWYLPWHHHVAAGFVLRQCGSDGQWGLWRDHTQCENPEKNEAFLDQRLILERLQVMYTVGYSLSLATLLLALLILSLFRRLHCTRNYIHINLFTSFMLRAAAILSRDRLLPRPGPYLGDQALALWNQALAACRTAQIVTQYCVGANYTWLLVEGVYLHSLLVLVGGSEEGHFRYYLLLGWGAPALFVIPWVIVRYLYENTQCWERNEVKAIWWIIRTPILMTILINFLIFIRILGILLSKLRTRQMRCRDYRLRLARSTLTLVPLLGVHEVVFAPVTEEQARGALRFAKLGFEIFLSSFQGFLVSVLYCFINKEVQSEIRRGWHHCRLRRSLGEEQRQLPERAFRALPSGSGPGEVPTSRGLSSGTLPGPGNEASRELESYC
# T2: human amylin-3(a) receptor (human, UniProt P30988 25-474; O60896 24-148)
# T2 sequence (looked up) 1: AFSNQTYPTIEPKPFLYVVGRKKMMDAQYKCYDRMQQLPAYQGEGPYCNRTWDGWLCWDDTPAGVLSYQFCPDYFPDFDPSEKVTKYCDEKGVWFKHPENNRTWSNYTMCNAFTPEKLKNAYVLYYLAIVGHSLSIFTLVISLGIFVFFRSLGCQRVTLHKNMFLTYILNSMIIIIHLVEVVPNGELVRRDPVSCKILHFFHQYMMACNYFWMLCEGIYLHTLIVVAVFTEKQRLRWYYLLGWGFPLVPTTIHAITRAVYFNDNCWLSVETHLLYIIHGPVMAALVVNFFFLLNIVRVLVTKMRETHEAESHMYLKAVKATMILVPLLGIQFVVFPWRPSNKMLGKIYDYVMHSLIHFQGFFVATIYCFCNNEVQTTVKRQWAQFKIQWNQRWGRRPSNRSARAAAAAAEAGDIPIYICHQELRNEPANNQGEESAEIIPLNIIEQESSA
# T2 sequence (looked up) 2: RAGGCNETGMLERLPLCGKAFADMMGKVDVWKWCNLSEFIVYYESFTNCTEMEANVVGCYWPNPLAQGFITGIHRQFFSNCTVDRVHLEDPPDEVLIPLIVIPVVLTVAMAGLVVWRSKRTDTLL
# B1: Compound 51 (peptide)
# peptide: H[Aib]HGTFTSDYSILLEEQAAREFIEWLLAGGPSSGALAQTLAQTLASHLSTAQTQRLSAELHK(Chem. 28)LATLPRTETGSGSP-NH2
# modifications: reading uncertain
# B2: Compound 52 (peptide)
# peptide: Y[Aib]EGTFTSDYSILLEEQAAREFIEWLLAGGPSSGAGQAPGQAPGASHLSTAQTQRLSAELHK(Chem. 28)LATLPRTETGSGSP-NH2
# modifications: reading uncertain
# B3: Compound 53 (peptide)
# peptide: Y[Aib]EGTFTSDYSILLEEQAAREFIEWLLAGGPSSGAGQAPGQAPGASHLSTAALGRLSAELHK(Chem. 28)LATLPRTETGSGSP-NH2
# modifications: reading uncertain
# B4: Compound 55 (peptide)
# peptide: Y[Aib]EGTFTSDYSILLEEQAAREFIEWLLAGGPSSGAGQAPGQAPGASHLSTAQTQRLSAK(Chem. 28)LHRLATLPRTETGSGSP-NH2
# modifications: reading uncertain
# B5: Compound 56 (peptide)
# peptide: Y[Aib]EGTFTSDYSILLEEQAAREFIEWLLAGGPSSGAGQAPGQAPGASHLSTAQTQRLSAELHRLK(Chem. 28)TLPRTETGSGSP-NH2
# modifications: reading uncertain
# B6: Compound 57 (peptide)
# peptide: Y[Aib]EGTFTSDYSILLEEQAAREFIEWLLAGGPSSGAGQAPGQAPGASHLSTAQTQRLSAELHRLATLPK(Chem. 28)TETGSGSP-NH2
# modifications: reading uncertain
# B7: Compound 58 (peptide)
# peptide: Y[Aib]EGTFTSDYSILLEEQAAREFIEWLLAGGPSSGAGQAPGQAPLASHLSTAQTQRLSAELHK(Chem. 28)LATLPRTETGSGSP-NH2
# modifications: reading uncertain
# B8: Compound 59 (peptide)
# peptide: Y[Aib]EGTFTSDYSILLEEQAAREFIEWLLAGGPSSGALAQTLAQTLASHLSTAQTQRLSAELHK([AEEA-AEEA-γGlu-C16 diacid])LATLPRTETGSGSP-NH2
# B9: Compound 60 (peptide)
# peptide: Y[Aib]EGTFTSDYSILLEEQAAREFIEWLLAGGPSSGALAQTLAQTLASHLSTAQTQRLSAELHK([AEEA-AEEA-γGlu-C20 diacid])LATLPRTETGSGSP-NH2
# B10: Compound 61 (peptide)
# peptide: H[Aib]HGTFTSDYSILLEEQAAREFIEWLLAGGPSK([AEEA-AEEA-γGlu-C16 diacid])GAPPPSGGGEASHLSTAQTARLSAELHRLADLPRTETGSGSP-NH2
# B11: Compound 62 (peptide)
# peptide: H[Aib]HGTFTSDYSILLEEQAAREFIEWLLAGGPSK([AEEA-AEEA-γGlu-C16 diacid])GEASQLSTAALGRLSAELHRLADLPRTETGSGSP-NH2
# B12: Compound 63 (peptide)
# peptide: H[Aib]HGTFTSDYSILLEEQAAREFIEWLLAGGPSK([AEEA-AEEA-γGlu-C18 diacid])GEASQLSTAALGRLSAELHTLATLPRTETGSGSP-NH2
# B13: Compound 64 (peptide)
# peptide: H[Aib]HGTFTSDYSILLEEQAAREFIEWLLAGGPSK([AEEA-AEEA-γGlu-C18 diacid])GEASQLSTAALGRLSAELHQLATLPRTETGSGSP-NH2
# B14: Compound 65 (peptide)
# peptide: H[Aib]HGTFTSDYSILLEEQAAREFIEWLLAGGPSK([AEEA-AEEA-γGlu-C18 diacid])GEASQLSTAALGRLSAELHGLATLPRTETGSGSP-NH2
# B15: Compound 67 (peptide)
# peptide: Y[Aib]EGTFTSDYSILLEEQAAREFIEWLLAGGPSRGEASELSTAALGRLSAELHK([AEEA-AEEA-γGlu-C18 diacid])LATLPRTETGSGSP-NH2
# B16: Compound 68 (peptide)
# peptide: Y[Aib]EGTFTSDYSILLEEQAAREFIEWLLAGGPSRGEASHLSTAQTQRLSAELHK([AEEA-AEEA-γGlu-C18 diacid])LATLPRTETGSGSP-NH2
# B17: Compound 69 (peptide)
# peptide: H[Aib]HGTFTSDYSILLEEQAAREFIEWLLAGGPSRGEASHLSTAQTQRLSAELHK([AEEA-AEEA-γGlu-C18 diacid])LATLPRTETGSGSP-NH2
# Molecular target: T3, human GLP-1 receptor (human, UniProt P43220 24-463)
# Experiment: cell-based or functional assay
row,Binder,"hGLP-1R Potency, no HSA, EC50 [pM]"
1,B1,7.68
2,B2,11
3,B3,23.3
4,B4,23
5,B5,18.2
6,B6,12.8
7,B7,12.7
8,B8,50.6
9,B9,94.4
10,B10,2.79
11,B11,4.13
12,B12,4.77
13,B13,3.71
14,B14,4.86
15,B15,15.4
16,B16,12.1
17,B17,3.45

# Molecular target: T1, human GIP receptor
# Experiment: cell-based or functional assay
row,Binder,"hGIPR Potency, no HSA, EC50 [pM]"
1,B1,8.37
2,B2,1.83
3,B3,3.25
4,B4,3
5,B5,2.65
6,B6,1.98
7,B7,1.88
8,B8,7.72
9,B9,6.06
10,B10,1.3
11,B11,2.26
12,B12,1.6
13,B13,2.03
14,B14,1.89
15,B15,4.28
16,B16,1.83
17,B17,1.9

# Molecular target: T2, human amylin-3(a) receptor
# Experiment: cell-based or functional assay
row,Binder,"hAMYR3 Potency, no HSA, EC50 [pM]"
1,B1,6.19
2,B2,2.85
3,B3,3.22
4,B4,2.22
5,B5,2.36
6,B6,3
7,B7,2.91
8,B8,3.85
9,B9,3.85
10,B10,2.97
11,B11,3.35
12,B12,2.86
13,B13,1.91
14,B14,2.84
15,B15,3.66
16,B16,2.57
17,B17,3.43

# Molecular target: T3, human GLP-1 receptor
# Experiment: cell-based or functional assay
# Remark: another data set of the same source
row,Binder,"hGLP-1R Potency, 1% HSA, EC50 [pM]"
1,B1,32.2
2,B2,26.9
3,B3,79.2
4,B4,45.3
5,B5,58.4
6,B6,29.6
7,B7,25.6
8,B8,39.8
9,B9,173
10,B10,14.7
11,B11,11.5
12,B12,101
13,B13,67.8
14,B14,100
15,B15,105
16,B16,51.9
17,B17,20.4

# Molecular target: T1, human GIP receptor
# Experiment: cell-based or functional assay
# Remark: another data set of the same source
row,Binder,"hGIPR Potency, 1% HSA, EC50 [pM]"
1,B1,61.9
2,B2,6.79
3,B3,14.6
4,B4,10.3
5,B5,8.48
6,B6,5.85
7,B7,7.58
8,B8,27.2
9,B9,28.3
10,B10,16
11,B11,47.2
12,B12,63.2
13,B13,100
14,B14,118
15,B15,37
16,B16,11.9
17,B17,8.05

# Molecular target: T2, human amylin-3(a) receptor
# Experiment: cell-based or functional assay
# Remark: another data set of the same source
row,Binder,"hAMYR3 Potency, 1% HSA, EC50 [pM]"
1,B1,57.1
2,B2,119
3,B3,75.9
4,B4,34
5,B5,44.9
6,B6,85
7,B7,134
8,B8,24.2
9,B9,191
10,B10,30.8
11,B11,28.8
12,B12,70.2
13,B13,109
14,B14,127
15,B15,190
16,B16,230
17,B17,78.9
